Data as given in patent publication US6911526B2, “Compounds that inhibit the interaction between signal-transducing proteins and the GLGF (PDZ/DHR) domain and uses thereof” (The Trustees of Columbia University in the City of New York, priority 1996, dated 2005).
“Also recorded” adds a separate entry of the source. Where no end group is shown, it is not given here.

Tests used:
Fas/FAP-1 binding [1] = test: Inhibition of binding of GST-FAP-1 to native Fas extracted from Jurkat T-cells (Western analysis); conditions: GST-FAP-1, Jurkat T-cell extracts; FIGS. 4C and 4D
Procedure: GST-fusion proteins with or without FAP-1 were incubated with cell extracts from Jurkat T-cells expressing Fas. The bound Fas was detected by Western analysis using anti-Fas monoclonal antibody (F22120, Transduction Laboratories). The tripeptides, Ac-SLV and Ac-SLY were used for the inhibition assay of Pas/FAP-1 binding.

Fas/FAP-1 binding [2] = test: In vitro inhibition assay of Fas/FAP-1 binding (GST-Fas and in vitro-translated 35S-FAP-1); conditions: for binding of in vitro-translated FAP-1 to GST-Fas: FIG. 3A, C-terminal 15 amino acids at 1-1000 μM, human PAMP 1 mM as negative control
Procedure: HFAP-10 cDNA (Sato, et al. 1995) subcloned into the Bluescript vector pSK-II (Stratagene) was in vitro-translated from an internal methionine codon in the presence of ^35S-L-methionine using a coupled in vitro transcription/translation system (Promega, TNT lysate) and T7 RNA polymerase. The resulting ^35S-labeled protein was incubated with GST-Fas fusion proteins that had been immobilized on […] affinity beads (Pharmacia) in a buffer containing 150 mM NaCl, 50 mM Tris [pH 8.0], 5 mM DTT, 2 mM EDTA, 0.1% NP-40, 1 mM PMSF, 50 μg/ml leupeptin, 1 mM Benzamidine, and 7 μg/ml pepstatin for 16 hours at 4° C. After washing vigorously 4 times in the same buffer, associated proteins were recovered with the glutathione-Sepharose beads by centrifugation, eluted into boiling Laemmli buffer, and analyzed by SDS-PAGE and fluorography.
In vitro-translated [^35S]HFAP-1 was purified with a NAP-5 column (Pharmacia) and incubated with 3 μM of GST-fusion proteins for 16 hours at 4° C. After washing 4 times in the binding buffer, radioactivity incorporation was determined in a b counter. The percentage of binding inhibition was calculated as follows: percent inhibition=[radioactivity incorporation using GST-Fas (191-335) with peptides−radioactivity incorporation using GST-Fas (191-320) with peptides]/[radioactivity incorporation using GST-Fas (191-335) without peptides−radioactivity incorporation using GST-Fas (191-320) without peptides]. n=3.

[3] = test system: DLD-1 human colon cancer cells; test: Microinjection of synthetic tripeptides into DLD-1 cells, Fas-induced apoptosis; format: cell-based; conditions: tripeptide 100 mM microinjected into cytoplasm, Fas monoclonal antibody CH11 500 ng/ml, 16-20 hours postinjection, condensed chromatin (Hoechst 33342)
Procedure: DLD-1 human colon cancer cells were cultured in RPMI 1640 medium containing 10% FCS. For microinjection, cells were plated on CELLocate (Eppendorf) at 1×10^5 cells/2 ml in a 35 mm plastic culture dish and grown for 1 day. Just before microinjection, Fas monoclonal antibodies CH11 (MBL International) was added at the concentration of 500 ng/ml. All microinjection experiments were performed using an automatic microinjection system (Eppendorf transjector 5246, micro-manipulator 5171 and Femtotips) (Pantel, et al. 1995). Synthetic tripeptides were suspended in 0.1% (w/v) FITC-Dextran (Sigma)/K-PBS at the concentration of 100 mM. The samples were microinjected into the cytoplasmic region of DLD-1 cells. Sixteen to 20 hours postinjection, the cells were washed with PBS and stained with 10 μg/ml Hoechst 33342 in PBS. After incubation at 37° C. for 30 minutes, the cells were photographed and the cells showing condensed chromatin were counted as apoptotic.
For each experiment, 25-100 cells were microinjected. Apoptosis of microinjected cells was determined by assessing morphological changes of chromatin using phase contrast and fluorescence microscopy (Wang, et al., 1995; McGahon, et al., 1995). The data are means +/− S.D. for two or three independent determinations.

FAP-1 = test: Interaction of C-terminal tripeptides fused to LexA with FAP-1 in yeast two-hybrid system; format: cell-based; conditions: LexA fusion co-transformed into yeast L40 with pVP16-FAP-1; FIG. 4A
Description: The bait plasmids, pBTM116 (LexA)-SLV, -PLV, -SLY, and -SLA, were constructed and transformed into L40-strain with pVP16-FAP-1 or -ras. Six independent clones from each transformants were picked up for the analysis of growth on histidine-deficient medium. GST-Fas, -SLV, and PLV were purified with GST-Sepharose 4B affinity beads (Pharmacia). The methods for in vitro binding are described above.

LexA-SLY fusion protein = target: T1, LexA-SLY fusion protein (UniProt P0A7C2 1-202); test: yeast two-hybrid (growth on histidine-deficient medium)
T1 construct: Yeast two-hybrid bait; also called pBTM116 (LexA)-SLY
T1 sequence: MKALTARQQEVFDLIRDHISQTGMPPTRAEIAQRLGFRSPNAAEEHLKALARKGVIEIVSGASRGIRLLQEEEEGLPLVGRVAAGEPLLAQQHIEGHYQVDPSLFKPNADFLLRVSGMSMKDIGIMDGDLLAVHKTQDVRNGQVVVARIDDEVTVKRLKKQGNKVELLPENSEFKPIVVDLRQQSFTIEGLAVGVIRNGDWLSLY

LexA-PLV fusion protein = target: T2, LexA-PLV fusion protein (UniProt P0A7C2 1-202); test: as above
T2 construct: Yeast two-hybrid bait; also called pBTM116 (LexA)-PLV; -PLy
T2 sequence: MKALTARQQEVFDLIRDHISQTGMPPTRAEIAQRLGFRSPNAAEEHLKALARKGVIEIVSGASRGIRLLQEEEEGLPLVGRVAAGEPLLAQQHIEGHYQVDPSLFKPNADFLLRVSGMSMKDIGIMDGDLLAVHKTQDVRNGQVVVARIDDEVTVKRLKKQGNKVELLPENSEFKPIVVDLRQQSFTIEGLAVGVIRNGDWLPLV

LexA-SLA fusion protein = target: T3, LexA-SLA fusion protein (UniProt P0A7C2 1-202); test: as above
T3 construct: Yeast two-hybrid bait; also called pBTM116 (LexA)-SLA
T3 sequence: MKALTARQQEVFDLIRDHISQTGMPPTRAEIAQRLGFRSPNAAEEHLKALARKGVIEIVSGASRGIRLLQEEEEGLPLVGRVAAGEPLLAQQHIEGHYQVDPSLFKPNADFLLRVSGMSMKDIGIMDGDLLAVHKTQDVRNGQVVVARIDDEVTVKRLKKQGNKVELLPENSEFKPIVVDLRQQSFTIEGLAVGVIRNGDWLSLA

Ac-SLV-COOH (Ac-Ser-Leu-Val-OH) [acetylated tripeptide of the three C-terminal amino acids of Fas]
binding activity of FAP-1 to Fas proteins extracted from Jurkat T-cells (Fas/FAP-1 binding [1]): abolished in a dose-dependent manner | inhibitory effect on the binding of FAP-1 to Fas, truncated acetylated peptides (Fas/FAP-1 binding [2]; FIG. 3B, acetylated synthetic peptides): same level of inhibitory effect | induction of apoptosis in microinjected DLD-1 cells [3]: dramatically induced apoptosis

Ac-SLY: acetylated synthetic tripeptide SLY, used as non-binding control (Ac-Ser-Leu-Tyr)
binding activity of FAP-1 to Fas proteins extracted from Jurkat T-cells (Fas/FAP-1 binding [1]): not | induction of apoptosis in microinjected DLD-1 cells [3]: did not; also recorded: only one cell of the area appeared apoptotic

human PAMP peptide: N-terminal 20 amino acids of proadrenomedullin, negative control (ARLDVASEFRKKWNKWALSR) [reference compound]
binding of in vitro-translated FAP-1 to GST-Fas (Fas/FAP-1 binding [2]): no effect

DSENSNFRNEIQSLV (Ac-DSENSNFRNEIQSLV) [synthetic 15 amino acids of Fas, synthetic peptide of the C-terminal 15 amino acids of Fas]
binding of in vitro-translated FAP-1 to GST-Fas (Fas/FAP-1 binding [2]): dramatically reduced and dependent on the concentration

B1: LexA-SLV: LexA DNA binding domain fused to tripeptide SLV (yeast bait) (protein)
chain: MKALTARQQEVFDLIRDHISQTGMPPTRAEIAQRLGFRSPNAAEEHLKALARKGVIEIVSGASRGIRLLQEEEEGLPLVGRVAAGEPLLAQQHIEGHYQVDPSLFKPNADFLLRVSGMSMKDIGIMDGDLLAVHKTQDVRNGQVVVARIDDEVTVKRLKKQGNKVELLPENSEFKPIVVDLRQQSFTIEGLAVGVIRNGDWLSLV
association with FAP-1 in yeast (growth on histidine-deficient medium) (FAP-1): associated with FAP-1

B2: LexA-PLV: LexA DNA binding domain fused to tripeptide PLV (yeast bait) (protein)
chain: MKALTARQQEVFDLIRDHISQTGMPPTRAEIAQRLGFRSPNAAEEHLKALARKGVIEIVSGASRGIRLLQEEEEGLPLVGRVAAGEPLLAQQHIEGHYQVDPSLFKPNADFLLRVSGMSMKDIGIMDGDLLAVHKTQDVRNGQVVVARIDDEVTVKRLKKQGNKVELLPENSEFKPIVVDLRQQSFTIEGLAVGVIRNGDWLPLV
association with FAP-1 in yeast (growth on histidine-deficient medium) (FAP-1): did not

B3: LexA-SLY: LexA DNA binding domain fused to tripeptide SLY (yeast bait) (protein)
chain: MKALTARQQEVFDLIRDHISQTGMPPTRAEIAQRLGFRSPNAAEEHLKALARKGVIEIVSGASRGIRLLQEEEEGLPLVGRVAAGEPLLAQQHIEGHYQVDPSLFKPNADFLLRVSGMSMKDIGIMDGDLLAVHKTQDVRNGQVVVARIDDEVTVKRLKKQGNKVELLPENSEFKPIVVDLRQQSFTIEGLAVGVIRNGDWLSLY
association with FAP-1 in yeast (growth on histidine-deficient medium) (FAP-1): did not

B4: LexA-SLA: LexA DNA binding domain fused to tripeptide SLA (yeast bait) (protein)
chain: MKALTARQQEVFDLIRDHISQTGMPPTRAEIAQRLGFRSPNAAEEHLKALARKGVIEIVSGASRGIRLLQEEEEGLPLVGRVAAGEPLLAQQHIEGHYQVDPSLFKPNADFLLRVSGMSMKDIGIMDGDLLAVHKTQDVRNGQVVVARIDDEVTVKRLKKQGNKVELLPENSEFKPIVVDLRQQSFTIEGLAVGVIRNGDWLSLA
association with FAP-1 in yeast (growth on histidine-deficient medium) (FAP-1): did not

B5: LexA-PLY: LexA DNA binding domain fused to tripeptide PLY (yeast bait) (protein)
chain: MKALTARQQEVFDLIRDHISQTGMPPTRAEIAQRLGFRSPNAAEEHLKALARKGVIEIVSGASRGIRLLQEEEEGLPLVGRVAAGEPLLAQQHIEGHYQVDPSLFKPNADFLLRVSGMSMKDIGIMDGDLLAVHKTQDVRNGQVVVARIDDEVTVKRLKKQGNKVELLPENSEFKPIVVDLRQQSFTIEGLAVGVIRNGDWLPLY
association with FAP-1 in yeast (growth on histidine-deficient medium) (FAP-1): did not

B6: FAP-1 expressed from plasmid pVP16-31 (VP16 fusion, yeast two-hybrid prey) (other)
chain: KMNFKTFSSSPPKPGDIFEVELAKNDNSLGISVTGGVNTSVRHGGIYVKAVIPQGAAESDGRIHKGDRVLAVNGVSLEGATHKQAVETLRNTGQVVHLLLEKGQSPTSKEHVPVTPQCTLS
notes: also called pVP16-FAP-1; Fas-associated phosphatase-1
binding result (LexA-SLY fusion protein): no binding | binding result (LexA-PLV fusion protein): no binding | binding result (LexA-SLA fusion protein): no binding
